These results are taken from patent US20120190623.

In data set [1] the target is FVIII mutant M/F 2199/2200 W/W (UniProt P00451).
Data set [2] deals with FVIII mutant L/L 2251/2252 L/S (L2252S) (UniProt P00451).
Data set [3] deals with FVIII mutant M/F/L 2199/2200/2252 W/W/S (UniProt P00451).
FVIII mutant M/F/L 2199/2200/2252 W/W/S, sequence (P00451 other isoform, or with tags, fused parts or gaps mutant): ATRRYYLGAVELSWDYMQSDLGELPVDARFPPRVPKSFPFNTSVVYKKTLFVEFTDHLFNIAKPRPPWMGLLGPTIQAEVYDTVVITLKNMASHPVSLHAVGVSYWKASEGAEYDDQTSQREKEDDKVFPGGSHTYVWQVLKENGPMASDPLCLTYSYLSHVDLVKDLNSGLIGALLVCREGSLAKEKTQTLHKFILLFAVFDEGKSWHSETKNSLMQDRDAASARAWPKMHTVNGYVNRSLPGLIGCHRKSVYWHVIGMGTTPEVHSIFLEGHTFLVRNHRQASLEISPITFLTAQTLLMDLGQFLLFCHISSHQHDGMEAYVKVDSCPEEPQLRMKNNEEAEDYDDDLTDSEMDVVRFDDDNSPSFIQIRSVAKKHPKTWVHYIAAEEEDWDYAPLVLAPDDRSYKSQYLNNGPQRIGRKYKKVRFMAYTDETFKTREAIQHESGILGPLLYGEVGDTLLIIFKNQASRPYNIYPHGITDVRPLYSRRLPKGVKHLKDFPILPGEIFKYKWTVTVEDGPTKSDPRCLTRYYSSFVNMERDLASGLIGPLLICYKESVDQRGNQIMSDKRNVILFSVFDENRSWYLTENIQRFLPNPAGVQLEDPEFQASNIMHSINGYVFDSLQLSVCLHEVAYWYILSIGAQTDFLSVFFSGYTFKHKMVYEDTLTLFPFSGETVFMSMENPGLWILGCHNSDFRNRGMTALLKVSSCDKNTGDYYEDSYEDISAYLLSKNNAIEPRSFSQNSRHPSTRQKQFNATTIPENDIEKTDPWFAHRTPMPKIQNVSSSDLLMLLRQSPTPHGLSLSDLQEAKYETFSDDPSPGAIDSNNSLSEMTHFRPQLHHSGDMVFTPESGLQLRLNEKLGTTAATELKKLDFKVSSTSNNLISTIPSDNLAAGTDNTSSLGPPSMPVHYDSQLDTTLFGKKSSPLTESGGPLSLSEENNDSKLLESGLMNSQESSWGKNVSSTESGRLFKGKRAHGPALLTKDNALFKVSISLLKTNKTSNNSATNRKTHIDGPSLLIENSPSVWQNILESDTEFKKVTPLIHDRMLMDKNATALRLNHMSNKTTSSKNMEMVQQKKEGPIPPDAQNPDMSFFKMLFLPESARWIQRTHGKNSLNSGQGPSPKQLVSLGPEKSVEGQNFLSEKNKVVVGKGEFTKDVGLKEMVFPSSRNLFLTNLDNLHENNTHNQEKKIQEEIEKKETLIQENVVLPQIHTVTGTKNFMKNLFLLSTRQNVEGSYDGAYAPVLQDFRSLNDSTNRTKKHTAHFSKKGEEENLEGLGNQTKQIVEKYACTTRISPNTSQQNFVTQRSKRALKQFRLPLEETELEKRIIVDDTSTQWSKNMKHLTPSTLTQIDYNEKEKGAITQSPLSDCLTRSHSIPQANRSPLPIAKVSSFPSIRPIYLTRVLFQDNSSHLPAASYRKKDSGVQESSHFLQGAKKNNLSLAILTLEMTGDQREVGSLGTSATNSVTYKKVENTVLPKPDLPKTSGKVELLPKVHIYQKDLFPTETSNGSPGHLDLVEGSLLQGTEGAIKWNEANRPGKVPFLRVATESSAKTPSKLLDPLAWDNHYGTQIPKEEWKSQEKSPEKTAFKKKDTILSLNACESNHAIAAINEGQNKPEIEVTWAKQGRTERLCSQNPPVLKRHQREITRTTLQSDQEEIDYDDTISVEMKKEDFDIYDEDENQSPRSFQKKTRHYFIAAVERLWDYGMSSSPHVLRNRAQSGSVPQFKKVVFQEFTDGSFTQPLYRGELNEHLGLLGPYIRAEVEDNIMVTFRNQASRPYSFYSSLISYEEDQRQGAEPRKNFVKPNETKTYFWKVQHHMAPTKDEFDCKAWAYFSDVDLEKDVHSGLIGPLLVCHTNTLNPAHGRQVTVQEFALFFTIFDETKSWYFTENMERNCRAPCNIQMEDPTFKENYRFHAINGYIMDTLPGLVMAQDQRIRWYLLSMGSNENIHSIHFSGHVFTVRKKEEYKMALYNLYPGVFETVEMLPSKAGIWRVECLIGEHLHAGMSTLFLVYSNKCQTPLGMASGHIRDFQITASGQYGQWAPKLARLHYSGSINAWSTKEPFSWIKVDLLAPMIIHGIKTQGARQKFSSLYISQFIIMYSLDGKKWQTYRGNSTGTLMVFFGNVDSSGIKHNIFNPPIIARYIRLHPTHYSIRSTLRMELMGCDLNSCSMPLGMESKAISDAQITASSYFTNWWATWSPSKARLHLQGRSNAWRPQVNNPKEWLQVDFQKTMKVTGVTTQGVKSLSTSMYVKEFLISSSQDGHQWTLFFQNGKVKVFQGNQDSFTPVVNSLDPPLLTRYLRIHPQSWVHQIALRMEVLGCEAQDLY

FVIII mutant L/L 2251/2252 L/S (L2252S), sequence (P00451 20-2351 L2271S): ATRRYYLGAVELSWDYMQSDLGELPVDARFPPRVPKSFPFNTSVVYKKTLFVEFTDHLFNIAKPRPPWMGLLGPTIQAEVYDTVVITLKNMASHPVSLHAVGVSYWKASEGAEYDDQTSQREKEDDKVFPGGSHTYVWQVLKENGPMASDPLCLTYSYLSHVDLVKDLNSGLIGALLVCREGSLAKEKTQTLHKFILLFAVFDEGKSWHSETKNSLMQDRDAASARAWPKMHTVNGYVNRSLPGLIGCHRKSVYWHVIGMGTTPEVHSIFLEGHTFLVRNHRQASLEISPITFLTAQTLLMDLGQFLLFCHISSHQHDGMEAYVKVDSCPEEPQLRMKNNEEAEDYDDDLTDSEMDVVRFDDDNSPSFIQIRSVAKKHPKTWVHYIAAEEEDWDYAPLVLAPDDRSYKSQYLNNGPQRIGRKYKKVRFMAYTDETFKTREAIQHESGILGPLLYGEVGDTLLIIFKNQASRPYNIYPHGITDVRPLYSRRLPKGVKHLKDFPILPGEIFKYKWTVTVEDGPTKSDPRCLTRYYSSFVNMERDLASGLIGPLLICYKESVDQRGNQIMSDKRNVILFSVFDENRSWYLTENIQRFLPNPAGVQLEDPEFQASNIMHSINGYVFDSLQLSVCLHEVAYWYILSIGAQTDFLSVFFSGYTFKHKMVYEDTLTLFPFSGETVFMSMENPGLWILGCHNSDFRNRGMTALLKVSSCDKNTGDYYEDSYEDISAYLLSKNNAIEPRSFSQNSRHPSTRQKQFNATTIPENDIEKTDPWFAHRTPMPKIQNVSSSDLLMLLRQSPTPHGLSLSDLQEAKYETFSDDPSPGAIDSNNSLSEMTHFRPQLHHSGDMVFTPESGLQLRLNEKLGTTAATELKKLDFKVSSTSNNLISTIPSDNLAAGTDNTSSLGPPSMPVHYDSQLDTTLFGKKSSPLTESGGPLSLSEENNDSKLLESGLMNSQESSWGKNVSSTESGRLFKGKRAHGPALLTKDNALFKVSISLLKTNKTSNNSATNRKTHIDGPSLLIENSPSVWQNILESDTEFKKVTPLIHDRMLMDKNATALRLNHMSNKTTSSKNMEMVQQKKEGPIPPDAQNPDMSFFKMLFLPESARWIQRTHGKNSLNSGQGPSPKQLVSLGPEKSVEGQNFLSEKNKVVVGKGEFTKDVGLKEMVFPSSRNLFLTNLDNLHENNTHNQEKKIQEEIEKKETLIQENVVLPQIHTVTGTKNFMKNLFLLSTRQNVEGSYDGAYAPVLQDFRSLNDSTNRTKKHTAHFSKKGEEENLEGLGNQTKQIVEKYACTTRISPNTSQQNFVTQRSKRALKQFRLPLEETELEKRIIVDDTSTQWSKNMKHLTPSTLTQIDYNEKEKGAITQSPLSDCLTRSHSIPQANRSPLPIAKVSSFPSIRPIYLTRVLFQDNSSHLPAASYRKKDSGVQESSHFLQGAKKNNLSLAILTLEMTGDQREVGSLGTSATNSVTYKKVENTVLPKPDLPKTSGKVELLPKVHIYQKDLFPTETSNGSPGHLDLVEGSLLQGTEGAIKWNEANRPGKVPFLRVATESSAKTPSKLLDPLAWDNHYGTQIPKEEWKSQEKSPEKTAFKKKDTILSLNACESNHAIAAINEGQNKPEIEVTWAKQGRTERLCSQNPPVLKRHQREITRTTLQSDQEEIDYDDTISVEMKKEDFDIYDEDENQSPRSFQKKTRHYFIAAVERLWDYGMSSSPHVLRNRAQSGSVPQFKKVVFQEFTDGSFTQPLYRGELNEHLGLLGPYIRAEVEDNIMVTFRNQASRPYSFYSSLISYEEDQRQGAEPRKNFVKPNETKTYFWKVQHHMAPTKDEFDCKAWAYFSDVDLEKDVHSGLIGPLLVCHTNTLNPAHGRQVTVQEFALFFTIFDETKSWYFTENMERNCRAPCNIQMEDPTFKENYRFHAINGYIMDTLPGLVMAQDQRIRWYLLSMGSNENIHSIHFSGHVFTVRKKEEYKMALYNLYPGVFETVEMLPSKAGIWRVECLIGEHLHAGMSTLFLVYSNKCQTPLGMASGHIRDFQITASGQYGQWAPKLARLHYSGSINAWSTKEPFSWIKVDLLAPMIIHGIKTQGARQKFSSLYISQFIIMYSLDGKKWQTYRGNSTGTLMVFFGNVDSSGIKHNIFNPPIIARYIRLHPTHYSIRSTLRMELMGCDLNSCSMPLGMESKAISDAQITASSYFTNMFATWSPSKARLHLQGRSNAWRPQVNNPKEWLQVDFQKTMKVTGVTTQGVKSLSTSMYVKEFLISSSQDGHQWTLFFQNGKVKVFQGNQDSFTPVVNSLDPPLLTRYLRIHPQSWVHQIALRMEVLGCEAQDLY
FVIII mutant M/F 2199/2200 W/W, sequence (P00451 other isoform, or with tags, fused parts or gaps mutant): as the sequence (P00451 20-2351 L2271S) above, with M2199W, F2200W, S2252L counted along it

As to factor IXa, the “apparent affinity for factor IXa, Xase assay with 15% PS vesicles” value in data set [1], in data set [2] and in data set [3] was “the apparent affinity for factor IXa was reduced 5-fold” in each case. Moreover, the “apparent affinity of factor IXa, Xase assay with saturating PL, 1000 µM” value in data set [1], in data set [2] and in data set [3] was “the apparent affinity of factor IXa for the mutants was decreased approximately 4-fold for the three mutants” in each case.
